Source: patent publication US20140155331A1 (published 2014)
Where no end group is shown, it is not given here. [ ]: non-standard residue; d: D form. Aib = CC(C)(N)C(=O)O

B1: S100B (other)
chain: MSELEKAMVALIDVFHQYSGREGDKHKLKKSELKELINNELSHFLEEIKEQEVVDKVMETLDNDGDGECDFQEFMAFVAMVTTACHEFFEHE

Columns and labels:
S100B = target: B1; test: fluorescence anisotropy
pBDC-53 = test: fluorescence anisotropy

| Kd (S100B) [nM] | Kd (pBDC-53) [nM] | Binder |
| --- | --- | --- |
| 4600 | – | fluorescein-QST[Aib]RH[Aib]KLMFKT[Aib]G [pBM-53 (Aib substituted p53 monomer peptide)] |
| – | 267 | B1 |
| 32 | – | fluorescein-TRTKIDW[Aib]KIL[Aib]GGGCG (not fully specified (residue 16); also: homodimer: two copies joined at Cys16 through BMH, linker at 16 via BMH, other end not in the chain) [pBDC-TRTK (pBM-TRTK dimerised with a properly designed crosslinker)] |
